Experimental data: paper PMC6057921
Blank lines part the entries; values can stand above or below the substance they belong to.

What was measured:
[1] = biological target: Arp2/3 complex (untagged, yeast) (yeast (RedStar yeast cakes)) (UniProt P32381); assay: SEC; Superdex 200 Increase 10/300 GL, 4 °C; 0.7 µM Arp2/3 complex and 7 µM Abp1 incubated >1 h on ice; 10 mM HEPES pH 7.0, 50 mM KCl, 1 mM EGTA, 2 mM MgCl2, 0.5 mM DTT, 0.1 mM ATP; bands of the peak fraction quantified on stain-free gels against standards
[2] = biological target: Arp2/3 complex (untagged, yeast) (yeast (RedStar yeast cakes)) (UniProt P32381); assay: negative-stain single-particle electron microscopy; Abp1-SNAP and Arp2/3 complex at 1:1 molar ratio (100 nM each), 30 min at room temperature, uranyl formate stain; random conical tilt 3D reconstructions at 21 Å
[3] = biological target: SNAP-tagged S. cerevisiae Arp2/3 complex (dye-labelled) (S. cerevisiae) (UniProt P32381); assay: single-molecule TIRF colocalisation; 649-biotin-SNAP-Arp2/3 complex anchored by streptavidin; 20 nM Abp1-SNAP-549 with 200 nM unlabeled Abp1 (220 nM total); 0.25 s intervals for 120 s; double exponential fit
[4] = biological target: SNAP-tagged S. cerevisiae Arp2/3 complex (dye-labelled) (S. cerevisiae) (UniProt P32381); assay: single-molecule TIRF colocalisation; 649-biotin-SNAP-Arp2/3 complex anchored by streptavidin; 20 nM Abp1-SNAP-549 flowed in; no actin; 0.25 s intervals for 120 s
[5] = biological target: Abp1-SNAP (S. cerevisiae Abp1 with C-terminal SNAP-tag, dye-labelled) (S. cerevisiae) (UniProt P15891); assay: single-molecule TIRF colocalisation; Abp1-SNAP-biotin-549 anchored by streptavidin; JF646-SNAP-Arp2/3 flowed in (10 nM in the results, 15 nM in the methods); no actin; 0.25 s intervals for 60 s
[6] = biological target: Rabbit skeletal muscle actin (filaments) (rabbit) (UniProt P68135); assay: single-molecule TIRF colocalisation; as a1 with 0.5 µM Abp1 present; double exponential fit
[7] = biological target: Rabbit skeletal muscle actin (filaments) (rabbit) (UniProt P68135); assay: single-molecule TIRF colocalisation; 10 nM JF646-SNAP-Arp2/3 on tethered, preformed unbranched OG-labeled actin filaments, no actin monomers, no Abp1; recorded at 0.15 s intervals; TIRF buffer pH 7.4; single exponential fit

- stoichiometry N (Abp1 per Arp2/3 complex) [1]: 2
Substance: Abp1 (S. cerevisiae, untagged after GST cleavage) (from UniProt P15891 1-592) (natural protein)

- percent of particles in the Class 1 Abp1-bound reconstruction [2]: 30%
- lifetime of long-lived interactions at 220 nM total Abp1 [3]: 36 s
- average lifetime [4]: 0.36 s
Substance: Abp1-SNAP (S. cerevisiae Abp1 with C-terminal SNAP-tag, dye-labelled) (from UniProt P15891 1-592) (natural protein)

- average dwell time [5]: 0.37 s
- lifetime of the longer-lived binding events with 0.5 µM Abp1 [6]: 2 s
- average lifetime on filament sides [7]: 0.37 s
Substance: SNAP-tagged S. cerevisiae Arp2/3 complex (dye-labelled) (from UniProt P32381 1-391; P47117 1-449; P38328 1-384)
